Laboratory results as given in patent publication US4643988A, “Amphipathic peptides” (Research Corporation, priority 1984, dated 1987).

Assay: Pore exclusion gradient gel electrophoresis of peptide/lipid complexes
Format: physicochemical
Settings: range over complexes, ratio not stated
Experimental: Pore exclusion electrophoresis was performed on the resulting peptide/lipid complexes (FIG. 7), on 4-25% olyacrylamide gels using non-denaturing conditions for 24 to 36 hours. Gels were fixed and stained in the presence of 4% formaldehyde. DMPC is mixed with a trace of fluorescent marker (NBD). Different ratios of protein:lipid (1:1, 1:2.5, 1:5, 1:7.5) were incubated for 24-36 hours.

Apo A-I: apolipoprotein A-I, major HDL apoprotein component, isolated from human serum
Stokes diameter: 80-200 Å
